T1: FcγRIIa H (FcγRIIa type H, His at position 131), extracellular domain with C-terminal His tag (human, UniProt P12318 34-217)
T1 construct: extracellular domain; Expressed in FreeStyle293 cells; analyte in the Biacore assay; also called FcgRIIa H; 2aH; not shown: His tag at the C terminus
T1 sequence (looked up): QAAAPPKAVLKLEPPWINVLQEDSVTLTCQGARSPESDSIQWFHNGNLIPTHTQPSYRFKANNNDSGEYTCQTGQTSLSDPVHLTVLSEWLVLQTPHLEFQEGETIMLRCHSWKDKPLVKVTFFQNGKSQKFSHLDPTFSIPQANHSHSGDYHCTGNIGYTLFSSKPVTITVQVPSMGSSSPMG


Experiments:
[1] = molecular target: T2, FcγRIa (human, UniProt P12314 16-292); experiment: SPR (Biacore), antibody captured on antigen peptide chip, FcγRIa as analyte; relative binding amount
T2 construct: extracellular domain; also called FcgRI; CD64; not shown: C-terminal His tag
T2 sequence (P12314 16-292): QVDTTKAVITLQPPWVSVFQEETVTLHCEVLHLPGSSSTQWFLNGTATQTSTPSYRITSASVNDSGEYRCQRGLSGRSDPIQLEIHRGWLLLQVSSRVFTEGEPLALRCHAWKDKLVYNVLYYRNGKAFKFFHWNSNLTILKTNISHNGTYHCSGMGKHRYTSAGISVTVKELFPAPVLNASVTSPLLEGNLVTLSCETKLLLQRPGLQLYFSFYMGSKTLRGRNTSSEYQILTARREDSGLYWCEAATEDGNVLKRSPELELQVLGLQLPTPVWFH
Procedure: Analysis of interaction between objective antibody and the FcγR was carried out using Biacore T100 (GE Healthcare). HBS-EP+ (GE Healthcare) was used as the running buffer, and the measurement temperature was set to 25° C. Chips produced by immobilizing the antigen peptide by the amine coupling method to a Series S Sencor Chip CM5 (GE Healthcare), or alternatively, chips produced by allowing preliminarily biotinylated antigen peptides to interact with and immobilize onto a Series S Sensor Chip SA (certified) (GE Healthcare) were used. Antibodies of interest were captured onto an antigen peptide-immobilized chip, and allowed to interact to each FcγR diluted with running buffer. To regenerate and repeatedly use the chip, the antibodies captured on the chip were washed off by reacting 10 mM glycine-HCl, pH 1.5.

[2] = molecular target: T1, FcγRIIa H (FcγRIIa type H, His at …); experiment: SPR Biacore; He/Con_2aH divided by He/Con_2b (reference: FcgRIIb)
[3] = molecular target: T1, FcγRIIa H (FcγRIIa type H, His at …); experiment: SPR Biacore, captured antibody, FcgR analyte; GpH7-A5/GpH7-B3/GpL16-k0 = 100

Binder | He/Con_1a [1] | He_2aH/2b (IIaH/IIb) [2] | He/Con_2aH [3]
GpH7-A5/GpH7-B3 variant Y300_14T/GpL16-k0 (antibody, human IgG1, kappa, heterodimerized IgG1; mutation in one H chain only; also called He Ab) heavy 1: not shown heavy 2: not shown light: DIVMTQSPLSLPVTPGEPASISCQASESLVHSNRNTYLHWYLQKPGQSPQLLIYKVSNRFSGVPDRFSGSGSGTDFTLKISRVEAEDVGVYYCSQNTHVPPTFGQGTKVEIERTVAAPSVFIFPPSDEQLKSGTASVVCLLNNFYPREAKVQWKVDNALQSGNSQESVTEQDSKDSTYSLSSTLTLSKADYEKHKVYACEVTHQGLSSPVTKSFNRGEC | 112 % of control (GpH7-A5/GpH7-B3/GpL16-k0 = 100) | – | –
GpH7-A5/GpH7-B3 variant Y296_16H/GpL16-k0 (antibody, human IgG1, kappa, heterodimerized IgG1; mutation in one H chain only; also called He Ab) heavy 1: not shown heavy 2: not shown light: DIVMTQSPLSLPVTPGEPASISCQASESLVHSNRNTYLHWYLQKPGQSPQLLIYKVSNRFSGVPDRFSGSGSGTDFTLKISRVEAEDVGVYYCSQNTHVPPTFGQGTKVEIERTVAAPSVFIFPPSDEQLKSGTASVVCLLNNFYPREAKVQWKVDNALQSGNSQESVTEQDSKDSTYSLSSTLTLSKADYEKHKVYACEVTHQGLSSPVTKSFNRGEC | 106 % of control (GpH7-A5/GpH7-B3/GpL16-k0 = 100) | – | –
GpH7-A5/GpH7-B3 variant Y296_18N/GpL16-k0 (antibody, human IgG1, kappa, heterodimerized IgG1; mutation in one H chain only; also called He Ab) heavy 1: not shown heavy 2: not shown light: DIVMTQSPLSLPVTPGEPASISCQASESLVHSNRNTYLHWYLQKPGQSPQLLIYKVSNRFSGVPDRFSGSGSGTDFTLKISRVEAEDVGVYYCSQNTHVPPTFGQGTKVEIERTVAAPSVFIFPPSDEQLKSGTASVVCLLNNFYPREAKVQWKVDNALQSGNSQESVTEQDSKDSTYSLSSTLTLSKADYEKHKVYACEVTHQGLSSPVTKSFNRGEC | 106 % of control (GpH7-A5/GpH7-B3/GpL16-k0 = 100) | – | –
GpH7-A5/GpH7-B3 variant Y296_20W/GpL16-k0 (antibody, human IgG1, kappa, heterodimerized IgG1; mutation in one H chain only; also called He Ab) heavy 1: not shown heavy 2: not shown light: DIVMTQSPLSLPVTPGEPASISCQASESLVHSNRNTYLHWYLQKPGQSPQLLIYKVSNRFSGVPDRFSGSGSGTDFTLKISRVEAEDVGVYYCSQNTHVPPTFGQGTKVEIERTVAAPSVFIFPPSDEQLKSGTASVVCLLNNFYPREAKVQWKVDNALQSGNSQESVTEQDSKDSTYSLSSTLTLSKADYEKHKVYACEVTHQGLSSPVTKSFNRGEC | 111 % of control (GpH7-A5/GpH7-B3/GpL16-k0 = 100) | – | –
GpH7-A5/GpH7-B3 variant Y300_13S/GpL16-k0 (antibody, human IgG1, kappa, heterodimerized IgG1; mutation in one H chain only; also called He Ab) heavy 1: not shown heavy 2: not shown light: DIVMTQSPLSLPVTPGEPASISCQASESLVHSNRNTYLHWYLQKPGQSPQLLIYKVSNRFSGVPDRFSGSGSGTDFTLKISRVEAEDVGVYYCSQNTHVPPTFGQGTKVEIERTVAAPSVFIFPPSDEQLKSGTASVVCLLNNFYPREAKVQWKVDNALQSGNSQESVTEQDSKDSTYSLSSTLTLSKADYEKHKVYACEVTHQGLSSPVTKSFNRGEC | 111 % of control (GpH7-A5/GpH7-B3/GpL16-k0 = 100) | – | –
GpH7-A5/GpH7-B3 variant L328_11K/GpL16-k0 (antibody, human IgG1, kappa, He Ab; IgG1; mutation in one H chain only; also called He Ab) heavy 1: not shown heavy 2: not shown light: DIVMTQSPLSLPVTPGEPASISCQASESLVHSNRNTYLHWYLQKPGQSPQLLIYKVSNRFSGVPDRFSGSGSGTDFTLKISRVEAEDVGVYYCSQNTHVPPTFGQGTKVEIERTVAAPSVFIFPPSDEQLKSGTASVVCLLNNFYPREAKVQWKVDNALQSGNSQESVTEQDSKDSTYSLSSTLTLSKADYEKHKVYACEVTHQGLSSPVTKSFNRGEC | – | 4.27 | 32.2 % of HeCon Ab
GpH7-A5/GpH7-B3 variant Y300_11K/GpL16-k0 (antibody, human IgG1, kappa, heterodimerized IgG1; mutation in one H chain only; also called He Ab) heavy 1: not shown heavy 2: not shown light: DIVMTQSPLSLPVTPGEPASISCQASESLVHSNRNTYLHWYLQKPGQSPQLLIYKVSNRFSGVPDRFSGSGSGTDFTLKISRVEAEDVGVYYCSQNTHVPPTFGQGTKVEIERTVAAPSVFIFPPSDEQLKSGTASVVCLLNNFYPREAKVQWKVDNALQSGNSQESVTEQDSKDSTYSLSSTLTLSKADYEKHKVYACEVTHQGLSSPVTKSFNRGEC | 107 % of control (GpH7-A5/GpH7-B3/GpL16-k0 = 100) | – | –
GpH7-A5/GpH7-B3 variant Y296_19Q/GpL16-k0 (antibody, human IgG1, kappa, heterodimerized IgG1; mutation in one H chain only; also called He Ab) heavy 1: not shown heavy 2: not shown light: DIVMTQSPLSLPVTPGEPASISCQASESLVHSNRNTYLHWYLQKPGQSPQLLIYKVSNRFSGVPDRFSGSGSGTDFTLKISRVEAEDVGVYYCSQNTHVPPTFGQGTKVEIERTVAAPSVFIFPPSDEQLKSGTASVVCLLNNFYPREAKVQWKVDNALQSGNSQESVTEQDSKDSTYSLSSTLTLSKADYEKHKVYACEVTHQGLSSPVTKSFNRGEC | 112 % of control (GpH7-A5/GpH7-B3/GpL16-k0 = 100) | – | –
GpH7-A5/GpH7-B3 variant Y296_14T/GpL16-k0 (antibody, human IgG1, kappa, heterodimerized IgG1; mutation in one H chain only; also called He Ab) heavy 1: not shown heavy 2: not shown light: DIVMTQSPLSLPVTPGEPASISCQASESLVHSNRNTYLHWYLQKPGQSPQLLIYKVSNRFSGVPDRFSGSGSGTDFTLKISRVEAEDVGVYYCSQNTHVPPTFGQGTKVEIERTVAAPSVFIFPPSDEQLKSGTASVVCLLNNFYPREAKVQWKVDNALQSGNSQESVTEQDSKDSTYSLSSTLTLSKADYEKHKVYACEVTHQGLSSPVTKSFNRGEC | 105 % of control (GpH7-A5/GpH7-B3/GpL16-k0 = 100) | – | –
GpH7-A5/GpH7-B3 variant Y300_08L/GpL16-k0 (antibody, human IgG1, kappa, heterodimerized IgG1; mutation in one H chain only; also called He Ab) heavy 1: not shown heavy 2: not shown light: DIVMTQSPLSLPVTPGEPASISCQASESLVHSNRNTYLHWYLQKPGQSPQLLIYKVSNRFSGVPDRFSGSGSGTDFTLKISRVEAEDVGVYYCSQNTHVPPTFGQGTKVEIERTVAAPSVFIFPPSDEQLKSGTASVVCLLNNFYPREAKVQWKVDNALQSGNSQESVTEQDSKDSTYSLSSTLTLSKADYEKHKVYACEVTHQGLSSPVTKSFNRGEC | 113 % of control (GpH7-A5/GpH7-B3/GpL16-k0 = 100) | – | –
